Legend:
ABP1 = assay: DHFR-PCA on solid medium, bait ABP1 (Fig. 1B); format: cell-based, Saccharomyces cerevisiae; details: bait ABP1, label = prey; 2-4 replicates
Excerpt: Supplement 41467_2021_21873_MOESM8_ESM.xlsx, sheet "Fig1B" | column: medsize; medrep; Ratio; Score

Hua2 = assay: Deep mutational scanning of Abp1 SH3, Abp1-Hua2 DHFR-PCA (DMS score); format: cell-based, Saccharomyces cerevisiae; details: for ratio (log2 scale): HUA2_MTX2 (test) vs HUA2_S2 (reference); for ratio (log2 scale) / ratio (log2 scale) mean / frequency (reference condition) / frequency (test condition): amino acid mutation format; for ratio (log2 scale) / frequency (reference condition) / frequency (test condition): replicate 1, Fig. S3A-B; for ratio (log2 scale) mean: condition HUA2_MTX2; for ratio (log2 scale) mean / frequency (reference condition) mean / frequency (test condition) mean / frequency (log2 scale) (reference condition) mean / frequency (log2 scale) (test condition) mean: Fig. S3E; for frequency (reference condition): reference condition HUA2_S2; for frequency (reference condition) mean / frequency (log2 scale) (reference condition) mean: reference condition for HUA2_MTX2; for frequency (test condition) / frequency (test condition) mean / frequency (log2 scale) (test condition) mean: test condition HUA2_MTX2
Procedure: Single site mutation libraries were generated by a PCR-based saturation mutagenesis method[50] as described below. The mutagenesis was carried out on the pUC19 plasmid containing the SH3 domain sequence of ABP1 flanked by its homology arms subsequently used in the CRISPR mediated genomic re-integration. We used oligos containing degenerate nucleotides (NNN) to carry out the mutagenesis at each codon of the domain sequence. In the first step of the two-step PCR procedure (short PCR step), an amplicon was generated with an oligo containing the degenerate codon which is positioned within the domain sequence, and another oligo lying outside Abp1 sequence in the plasmid. Short PCR step was carried out with the following settings: 5 min at 95 °C, 35 cycles: 20 s at 98 °C, 15 s at 60 °C, 30 s at 72 °C, and a final extension of 1 min at 72 °C. The amplicon generated in this step was used as a mega primer in the second step (long PCR step) to amplify the whole plasmid. Long PCR step was carried out with the following settings: 5 min at 95 °C, 22 cycles: 20 s at 98 °C, 15 s at 68 °C, 3 min 30 s at 72 °C, and a final extension of 5 min at 72 °C. The long PCR product was digested for 2 h at 37 °C with DpnI. The digestion product was then transformed into E. coli MC1061 competent cells. In order to obtain most of the 64 possible codons, we recovered ~1000 colonies from each plate to retrieve the plasmid single mutant libraries. Saturation mutagenesis was carried out in a codon-position-wise manner. Mutants at each position were stored separately. Library quality control was assessed by amplifying the purified plasmid DNA preparations by PCR followed by Illumina sequencing as described below. The genomic insertion of the mutant libraries (one library per amino acid position) was performed by targeting the stuffer sequence in the ABP1 SH3-deleted strain as described in the strain construction section. ABP1 SH3-deleted yeast competent cells were co-transformed with pCAS containing the stuffer-specific gRNA and PCR amplified ABP1 SH3 single position mutated libraries from the pUC19 preparations. As for the library generation, ~1000 colonies from each plate were retrieved. Glycerol stocks of yeast cells were kept for each position (58 different stocks corresponding to the 58 amino acid positions of Abp1 SH3). The stocks were also validated by Illumina sequencing (see below).
Liquid DHFR-PCA experiments were performed following the generation of the ABP1 SH3 single position mutated yeast strains and were performed in biological independent duplicates. An overnight culture was started in YPD + NAT by adding the same number of cells from each yeast mutant strain (master pool). Then, the master pool and Hua2-DHFR F[3] or Lsb3-DHFR F[3] preys strains were mixed in YPD (2:1) for mating and incubated for 8 h at 30 °C. Diploid cells were selected the first time by transferring the mixture in a YPD + NAT + HPH (OD 0.5) culture for 16 h at 30 °C. The next day, the first diploid selection was transferred in SC complete pH 6.0 + NAT + HPH at 0.5 OD and the culture was grown for 24 h at 30 °C. The validation of the yeast mutant libraries was done the next day with a fraction of the diploid cells (first DHFR-PCA experiment time point without PCA selection, reference condition S2) by amplifying ABP1 SH3 genomic sequence followed by Illumina sequencing as described in the section below. Following the selection, diploid cells OD was read using a TECAN Infinite F200 Pro, and dilutions to 0.1 OD in PCA selection media without agar in a 50 mL tube was done. Tubes were incubated at 30 °C for 72 h (second-time point of the DHFR-PCA experiment, first PCA selection). A fraction of the cells (5U OD) was collected for Illumina sequencing. The cells from the first PCA step were grown for a second PCA selection step using the same procedures. […]

B1: YJL128C (protein, UniProt P08018 1-668, looked up)
MAP kinase kinase PBS2: MEDKFANLSLHEKTGKSSIQLNEQTGSDNGSAVKRTSSTSSHYNNINADLHARVKAFQEQRALKRSASVGSNQSEQDKGSSQSPKHIQQIVNKPLPPLPVAGSSKVSQRMSSQVVQASSKSTLKNVLDNQETQNITDVNINIDTTKITATTIGVNTGLPATDITPSVSNTASATHKAQLLNPNRRAPRRPLSTQHPTRPNVAPHKAPAIINTPKQSLSARRGLKLPPGGMSLKMPTKTAQQPQQFAPSPSNKKHIETLSNSKVVEGKRSNPGSLINGVQSTSTSSSTEGPHDTVGTTPRTGNSNNSSNSGSSGGGGLFANFSKYVDIKSGSLNFAGKLSLSSKGIDFSNGSSSRITLDELEFLDELGHGNYGNVSKVLHKPTNVIMATKEVRLELDEAKFRQILMELEVLHKCNSPYIVDFYGAFFIEGAVYMCMEYMDGGSLDKIYDESSEIGGIDEPQLAFIANAVIHGLKELKEQHNIIHRDVKPTNILCSANQGTVKLCDFGVSGNLVASLAKTNIGCQSYMAPERIKSLNPDRATYTVQSDIWSLGLSILEMALGRYPYPPETYDNIFSQLSAIVDGPPPRLPSDKFSSDAQDFVSLCLQKIPERRPTYAALTEHPWLVKYRNQDVHMSEYITERLERRNKILRERGENGLSKNVPALHMGGL
- medrep (log2 median colony size normalized to plate background, PCA score) (ABP1): 2.693

B2: ABP1 001 P * (protein, UniProt P15891 2-592, looked up)
Actin-binding protein: ALEPIDYTTHSREIDAEYLKIVRGSDPDTTWLIISPNAKKEYEPESTGSSFHDFLQLFDETKVQYGLARVSPPGSDVEKIIIIGWCPDSAPLKTRASFAANFAAVANNLFKGYHVQVTARDEDDLDENELLMKISNAAGARYSIQTSSKQQGKASTPPVKKSFTPSKSPAPVSKKEPVKTPSPAPAAKISSRVNDNNDDDDWNEPELKERDFDQAPLKPNQSSYKPIGKIDLQKVIAEEKAKEDPRLVQKPTAAGSKIDPSSDIANLKNESKLKRDSEFNSFLGTTKPPSMTESSLKNDDDKVIKGFRNEKSPAQLWAERKAKQNSGNAETKAEAPKPEVPEDEPEGEPDVKDLKSKFEGLAASEKEEEEMENKFAPPPKKSEPTIISPKPFSKPQEPVKAEEAEQPKTDYKKIGNPLPGMHIEADNEEEPEENDDDWDDDEDEAAQPPLPSRNVASGAPVQKEEPEQEEIAPSLPSRNSIPAPKQEEAPEQAPEEEIEEEAEEAAPQLPSRSSAAPPPPPRRATPEKKPKENPWATAEYDYDAAEDNELTFVENDKIINIEFVDDDWWLGELEKDGSKGLFPSNYVSLGN
- ratio (log2 scale) (Hua2): -1.421 log2 scale
- ratio (log2 scale) mean (Hua2): -1.432 log2 scale
- frequency (reference condition) (Hua2): 0.001041
- frequency (reference condition) mean (Hua2): 0.0009397
- frequency (test condition) (Hua2): 5.39E-06
- frequency (test condition) mean (Hua2): 2.69E-06

B3: ABP1 001 P E (protein, UniProt P15891 2-592, looked up)
Actin-binding protein: B2 Actin-binding protein
- ratio (log2 scale) (Hua2): 2.627 log2 scale
- ratio (log2 scale) mean (Hua2): 2.654 log2 scale
- frequency (reference condition) (Hua2): 0.0007975
- frequency (log2 scale) (reference condition) mean (Hua2): -1.4398 log2 scale
- frequency (reference condition) mean (Hua2): 0.0006949
- frequency (test condition) (Hua2): 0.002419
- frequency (log2 scale) (test condition) mean (Hua2): -1.434 log2 scale
- frequency (test condition) mean (Hua2): 0.002135

B4: ABP1 001 P C (protein, UniProt P15891 2-592, looked up)
Actin-binding protein: B2 Actin-binding protein
- ratio (log2 scale) (Hua2): 2.7124 log2 scale
- ratio (log2 scale) mean (Hua2): 3.075 log2 scale
- frequency (reference condition) (Hua2): 0.0005961
- frequency (log2 scale) (reference condition) mean (Hua2): -1.441 log2 scale
- frequency (reference condition) mean (Hua2): 0.0004649
- frequency (test condition) (Hua2): 0.001896
- frequency (log2 scale) (test condition) mean (Hua2): -1.435 log2 scale
- frequency (test condition) mean (Hua2): 0.001734

B5: YFR040W (protein, UniProt P43612 1-1002, looked up)
SIT4-associating protein …: MSFWPFGQNLNHSNINKILDEYFHVLHELERINPSVGKAIPAIFNNVQERGTSDSLDSIPEEYSHGDEVKTARGDQKSRFEKDDQQERYEKEEEERSMNSSESSTTSFSSGSTSKTDLDEEDISNATAPMMVTTKNLDNSFIERMLVETELLNELSRQNKTLLDFICFGFFFDKKTNKKVNNMEYLVDQLMECISKIKTATTVDLNNLIDYQEQQQLDDSSQEDVYVESDTEQEEEKEDDNNSNNKKRRKRGSSSFGNDDINNNDDDDDANEDDESAYLTKATIISEIFSLDIWLISESLVKNQSYLNKIWSIINQPNFNSENSPLVPIFLKINQNLLLTRQDQYLNFIRTERSFVDDMLKHVDISLLMDFFLKIISTDKIESPTGIIELVYDQNLISKCLSFLNNKESPADIQACVGDFLKALIAISANAPLDDISIGPNSLTRQLASPESIAKLVDIMINQRGAALNTTVSIVIELIRKNNSDYDQVNLLTTTIKTHPPSNRDPIYLGYLLRKFSNHLSDFFQIILDIENDANIPLHENQLHEKFKPLGFERFKVVELIAELLHCSNMGLMNSKRAERIARRRDKVRSQLSHHLQDALNDLSIEEKEQLKTKHSPTRDTDHDLKNNNGKIDNDNNDNDDESDYGDEIDESFEIPYINMKQNIKLRTDPTVGDLFKIKLYDTRIVSKIMELFLTHPWNNFWHNVIFDIIQQIFNGRMDFSYNSFLVLSLFNLKSSYQFMTDIVISDEKGTDVSRFSPVIRDPNFDFKITTDFILRGYQDSYKFYELRKMNLGYMGHIVLIAEEVVKFSKLYKVELISPDIQVILQTEEWQYYSEEVLNETRMMYSKILGGGSYIDDGNGNIIPQLPDNTTVLTPNGDASNNNEILDSDTGSSNGTSGGGQLINVESLEEQLSLSTESDLHNKLREMLINRAQEDVDNKNTENGVFILGPPEDKNSNSNINNTNHNSNNSNNNDNNDNNDNDNDNTRNYNEDADNDNDYDHE
- medrep (log2 median colony size normalized to plate background, PCA score) (ABP1): 2.847

B6: YGL252C (protein, UniProt P32608 1-588, looked up)
Retrograde regulation protein …: MSTLSDSDTETEVVSRNLCGIVDIGSNGIRFSISSKAAHHARIMPCVFKDRVGLSLYEVQYNTHTNAKCPIPRDIIKEVCSAMKRFKLICDDFGVPETSVRVIATEATRDAINADEFVNAVYGSTGWKVEILGQEDETRVGIYGVVSSFNTVRGLYLDVAGGSTQLSWVISSHGEVKQSSKPVSLPYGAGTLLRRMRTDDNRALFYEIKEAYKDAIEKIGIPQEMIDDAKKEGGFDLWTRGGGLRGMGHLLLYQSEGYPIQTIINGYACTYEEFSSMSDYLFLKQKIPGSSKEHKIFKVSDRRALQLPAVGLFMSAVFEAIPQIKAVHFSEGGVREGSLYSLLPKEIRAQDPLLIASRPYAPLLTEKYLYLLRTSIPQEDIPEIVNERIAPALCNLAFVHASYPKELQPTAALHVATRGIIAGCHGLSHRARALIGIALCSRWGGNIPESEEKYSQELEQVVLREGDKAEALRIVWWTKYIGTIMYVICGVHPGGNIRDNVFDFHVSKRSEVETSLKELIIDDANTTKVKEESTRKNRGYEVVVRISKDDLKTSASVRSRIITLQKKVRKLSRGSVERVKIGVQFYEE
- medrep (log2 median colony size normalized to plate background, PCA score) (ABP1): 2.12

B7: YDL146W (protein, UniProt Q12342 1-491, looked up)
Protein LDB17: MILDPLSPNIENHTQDEIIEFWEKTESIANIPKENLDESHVNSSLVAYLKFATDSYKVFINTDRDLYRMSLILLESSLFEFKKEFCLSKLQSLLNIDLLEMNMKFIIVYILLCEAKKNVYSLEIMLKFQGFTVFYNTLYTQFAYLSKYGKERTVASKHQYNSNNSSTGTSLDSLDRSLTDIDLGIIDEMKQISTVLMDLLFQIMKYCKCVIANLQIVDDFFVYYMMESMRSDTMDDMFNNAEFKLLLALNEQYMMFAKEYDIENKVYKYLINGSVSRCFTELLLLKFNRASDPPLQIMMCKIIYLILTPRGDYSPMNFFYTNDLRVLIDVLIRELQNISEDEEVLRNTLLRVLIPLLKNTQLSKTHYRKDDLNKLLNYLSTLDNICVDSPALHEHQVTVALSRKCLQQIPWLETPSTPSDGGSSVSSNNTSRNSSIVALGTPDNQNILARKGHLYSNRELDVSAESLTKRKAKAPPPPPPPPPSRKCGTPK
- medrep (log2 median colony size normalized to plate background, PCA score) (ABP1): 3.631
